The text below walks through data of patent US20180072805A1.

The experiment addresses recombinant human soluble Flt-1 (human) (UniProt P17948). The experiment in a line: competition ELISA, inhibition of human sFlt-1:VEGF binding.
UniProt P17948, sequence (P17948 other isoform, or with tags, fused parts or gaps limits assumed): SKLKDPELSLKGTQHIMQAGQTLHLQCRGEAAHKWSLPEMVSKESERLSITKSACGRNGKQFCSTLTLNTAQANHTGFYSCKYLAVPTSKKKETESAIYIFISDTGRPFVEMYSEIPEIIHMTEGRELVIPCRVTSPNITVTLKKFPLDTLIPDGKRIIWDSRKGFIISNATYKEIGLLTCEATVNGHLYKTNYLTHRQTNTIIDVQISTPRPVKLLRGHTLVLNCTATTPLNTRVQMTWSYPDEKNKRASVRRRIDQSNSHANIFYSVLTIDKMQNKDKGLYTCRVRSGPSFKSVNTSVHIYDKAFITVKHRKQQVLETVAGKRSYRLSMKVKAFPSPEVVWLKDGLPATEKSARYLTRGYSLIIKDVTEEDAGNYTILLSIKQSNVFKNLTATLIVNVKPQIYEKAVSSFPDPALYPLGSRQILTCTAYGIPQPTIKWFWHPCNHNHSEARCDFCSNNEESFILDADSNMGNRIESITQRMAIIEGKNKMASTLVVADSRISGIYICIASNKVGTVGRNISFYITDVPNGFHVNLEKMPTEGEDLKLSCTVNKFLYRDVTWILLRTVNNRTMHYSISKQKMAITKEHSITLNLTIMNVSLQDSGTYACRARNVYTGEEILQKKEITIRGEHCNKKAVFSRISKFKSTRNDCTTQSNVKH

Regarding Abcam56300 (antibody), the IC50 (read off the curve) was found to be 10 ng/mL.
